# Patent publication US20130039923A1 (Novo Nordisk, published 2013)
# B1: human anti-hIL20 monoclonal antibody 15D2 (antibody, V domains shown)
# VH: QVQLVQSGAEVKRPGASVKVSCKASGYTFTNDIIHWVRQAPGQRLEWMGWINAGYGNTQYSQNFQDRVSITRDTSASTAYMELISLRSEDTAVYYCAREPLWFGESSPHDYYGMDVWGQGTTVTVSS
# VL: AIQLTQSPSSLSASVGDRVTITCRASQGISSALAWYQQKPGKAPKLLIYDASSLESGVPSRFSGSGSGTDFTLTISSLQPEDFATYYCQQFNSYPLTFGGGTKVEIKR
# notes: also called 15D2-wt; 15D2 wild-type
# B2: human anti-hIL20 monoclonal antibody 5B7 (antibody, human IgG4, V domains shown)
# VH: QVQLVQSGAEVKRPGASVKVSCKASGYTFSSHIMHWVRQAPGQRLEWMGWINAGYGNTKYSQNFQDRVTITRDTSASTAYMELISLRSEDTAVYYCAREPLWFGELSPHDYYGMDVWGQGTTVTVSS
# VL: AIQLTQSPSSLSASVGDRVTITCRASQGISSALAWYQQKPGKAPKLLIYDASSLESGVPSRFSGSGSGTDFTLTISSLQPEDFATYYCQQFNSYPLTFGGGTKVEIKR
# notes: described as human IgG4; also called 5B7-wt
# Legend:
# [1] = target: T1, recombinant human interleukin-20 (human, UniProt Q9NYY1 25-176); experiment: SPR (Biacore 3000/T100), antibody amine-coupled on CM5, recombinant hIL20 injected 3.125-100 nM, 1:1 Langmuir, 25 C; antibody from HEK293
# T1 construct: also called hIL20; IL20
# T1 sequence: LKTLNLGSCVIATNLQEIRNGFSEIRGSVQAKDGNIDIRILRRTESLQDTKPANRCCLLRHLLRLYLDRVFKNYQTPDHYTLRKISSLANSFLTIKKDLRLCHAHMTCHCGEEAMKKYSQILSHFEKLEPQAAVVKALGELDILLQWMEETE
# [2] = target: T1, recombinant human interleukin-20; experiment: cell-based or functional assay
# [3] = target: T1, recombinant human interleukin-20; experiment: SPR (Biacore 3000/T100), antibody amine-coupled on CM5, recombinant hIL20 injected 3.125-100 nM, 1:1 Langmuir, 25 C; antibody from hybridoma
# [4] = target: T2, hIL20 peptide 4 (residues 48-67 of SEQ ID NO. 1) (N-terminal biotin); experiment: SPR, biotinylated peptide on streptavidin chip (500 RU), antibody injected
# T2 peptide: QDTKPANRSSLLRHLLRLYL
# [5] = target: T3, hIL20 peptide 1 (residues 18-37 of SEQ ID NO: 1) (N-terminal biotin); experiment: as above
# T3 peptide: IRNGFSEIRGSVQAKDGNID
# [6] = target: T4, hIL20 peptide 3 (residues 38-57 of SEQ ID NO. 1) (N-terminal biotin); experiment: as above
# T4 peptide: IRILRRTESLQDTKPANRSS
# [7] = target: T5, hIL20 peptide 5 (residues 58-78 of SEQ ID NO: 1) (N-terminal biotin); experiment: as above
# T5 peptide: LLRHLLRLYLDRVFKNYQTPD
# [8] = target: T6, hIL20 peptide 2 (residues 28-47 of SEQ ID NO: 1) (N-terminal biotin); experiment: as above
# T6 peptide: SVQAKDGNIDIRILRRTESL
# [9] = target: T7, Peptide no. 47 (Figure 8A); experiment: Ala-scan peptide array of hIL20 74-96 on cellulose; fluorescein-labelled antibody; fluorescence as OD
# T7 construct: Ala-scan peptide on the array; also called Peptide no; T81A
# T7 peptide: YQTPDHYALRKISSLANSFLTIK
# [10] = target: T8, Peptide no. 52 (Figure 8A); experiment: as above
# T8 construct: Ala-scan peptide on the array; also called Peptide no; S86A
# T8 peptide: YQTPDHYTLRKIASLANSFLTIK
# [11] = target: T9, Peptide no. 59 (Figure 8A); experiment: as above
# T9 construct: Ala-scan peptide on the array; also called Peptide no; T94A
# T9 peptide: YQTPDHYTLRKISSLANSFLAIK
# [12] = target: T10, Peptide no. 53 (Figure 8A); experiment: as above
# T10 construct: Ala-scan peptide on the array; also called Peptide no; S87A
# T10 peptide: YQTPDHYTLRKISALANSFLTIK
# [13] = target: T11, Peptide no. 41 (Figure 8A); experiment: as above
# T11 construct: Ala-scan peptide on the array; also called Peptide no; Q75A
# T11 peptide: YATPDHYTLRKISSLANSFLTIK
# [14] = target: T12, Peptide no. 50 (Figure 8A); experiment: as above
# T12 construct: Ala-scan peptide on the array; also called Peptide no; K84A
# T12 peptide: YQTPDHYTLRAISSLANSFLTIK
# [15] = target: T13, Peptide no. 44 (Figure 8A); experiment: as above
# T13 construct: Ala-scan peptide on the array; also called Peptide no; D78A
# T13 peptide: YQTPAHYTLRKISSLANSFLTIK
# [16] = target: T14, Peptide no. 61 (Figure 8A); experiment: as above
# T14 construct: Ala-scan peptide on the array; also called Peptide no; K96A
# T14 peptide: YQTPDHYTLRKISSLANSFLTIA
# [17] = target: T15, Peptide no. 54 (Figure 8A); experiment: as above
# T15 construct: Ala-scan peptide on the array; also called Peptide no; L88A
# T15 peptide: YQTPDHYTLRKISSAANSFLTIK
# [18] = target: T16, Peptide no. 57 (Figure 8A); experiment: as above
# T16 construct: Ala-scan peptide on the array; also called Peptide no; F92A
# T16 peptide: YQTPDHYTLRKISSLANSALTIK
# [19] = target: T17, Peptide no. 43 (Figure 8A); experiment: as above
# T17 construct: Ala-scan peptide on the array; also called Peptide no; P77A
# T17 peptide: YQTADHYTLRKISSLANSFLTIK
# [20] = target: T18, Peptide no. 87 (Figure 6A); experiment: 18mer hIL20 peptide array on cellulose, 4 residue walk; fluorescein-labelled antibody; fluorescence as OD
# T18 construct: also called Peptide no
# T18 peptide: PDHYTLRKISSLANSFLT
# [21] = target: T19, Peptide no. 86 (Figure 6A); experiment: as above
# T19 construct: also called Peptide no
# T19 peptide: NYQTPDHYTLRKISSLAN
binder,measurement,setting,value
B1,Kd,[1],0.032 nM
same,koff,[1],6.3e-05 s⁻¹
same,kon,[1],1.9e+06 M⁻¹ s⁻¹
same,"IC50, inhibition of IL20 induced proliferation of BaF-3(hIL20R) at 1e-9M hIL20 (assay 1)",[2],180 nM
same,"IC50, inhibition of IL20 induced proliferation of BaF-3(hIL20R) at 1e-9M hIL20 (assay 2)",[2],420 nM
same,"IC50, inhibition of IL20 induced proliferation of BaF-3(hIL20R) at 1e-9M hIL20 (assay 3)",[2],340 nM
same,"IC50, inhibition of IL20 induced proliferation of BaF-3(hIL20R) at 1e-9M hIL20 (assay 6)",[2],120 nM
same,"IC50, inhibition of IL20 induced proliferation of BaF-3(hIL20R) at 1e-9M hIL20 (assay 7)",[2],436 nM
same,Kd,[3],0.55 nM
same,koff,[3],0.00011 s⁻¹
same,kon,[3],190000 M⁻¹ s⁻¹
same,binding result,[4],no binding (tested: 5 µg/ml)
same,binding result,[5],no binding (tested: 5 µg/ml)
same,binding result,[6],no binding (tested: 5 µg/ml)
same,binding result,[7],no binding (tested: 5 µg/ml)
same,binding result,[8],no binding (tested: 5 µg/ml)
same,binding result,[9],binds
same,binding result,[10],binds
same,binding result,[11],binds
same,binding result,[12],binds
same,binding result,[13],binds
same,binding result,[14],binds
same,binding result,[15],binds
same,binding result,[16],binds
same,binding result,[17],binds
same,binding result,[18],binds
same,binding result,[19],binds
same,binding result,[20],binds
same,binding result,[21],binds
B2,"IC50, inhibition of IL20 induced proliferation of BaF-3(hIL20R) at 1e-9M hIL20 (assay 1)",[2],260 nM
same,"IC50, inhibition of IL20 induced proliferation of BaF-3(hIL20R) at 1e-9M hIL20 (assay 2)",[2],4540 nM
same,"IC50, inhibition of IL20 induced proliferation of BaF-3(hIL20R) at 1e-9M hIL20 (assay 3)",[2],760 nM
same,"IC50, inhibition of IL20 induced proliferation of BaF-3(hIL20R) at 1e-9M hIL20 (assay 6)",[2],200 nM
same,Kd,[3],0.75 nM
same,koff,[3],0.0001 s⁻¹
same,kon,[3],140000 M⁻¹ s⁻¹
